This test deals with T1, Alexa488-PLCβ1 (purified PLCβ1a) (UniProt P10687 1-1216, Alexa488 on the N-terminus).
T1 sequence: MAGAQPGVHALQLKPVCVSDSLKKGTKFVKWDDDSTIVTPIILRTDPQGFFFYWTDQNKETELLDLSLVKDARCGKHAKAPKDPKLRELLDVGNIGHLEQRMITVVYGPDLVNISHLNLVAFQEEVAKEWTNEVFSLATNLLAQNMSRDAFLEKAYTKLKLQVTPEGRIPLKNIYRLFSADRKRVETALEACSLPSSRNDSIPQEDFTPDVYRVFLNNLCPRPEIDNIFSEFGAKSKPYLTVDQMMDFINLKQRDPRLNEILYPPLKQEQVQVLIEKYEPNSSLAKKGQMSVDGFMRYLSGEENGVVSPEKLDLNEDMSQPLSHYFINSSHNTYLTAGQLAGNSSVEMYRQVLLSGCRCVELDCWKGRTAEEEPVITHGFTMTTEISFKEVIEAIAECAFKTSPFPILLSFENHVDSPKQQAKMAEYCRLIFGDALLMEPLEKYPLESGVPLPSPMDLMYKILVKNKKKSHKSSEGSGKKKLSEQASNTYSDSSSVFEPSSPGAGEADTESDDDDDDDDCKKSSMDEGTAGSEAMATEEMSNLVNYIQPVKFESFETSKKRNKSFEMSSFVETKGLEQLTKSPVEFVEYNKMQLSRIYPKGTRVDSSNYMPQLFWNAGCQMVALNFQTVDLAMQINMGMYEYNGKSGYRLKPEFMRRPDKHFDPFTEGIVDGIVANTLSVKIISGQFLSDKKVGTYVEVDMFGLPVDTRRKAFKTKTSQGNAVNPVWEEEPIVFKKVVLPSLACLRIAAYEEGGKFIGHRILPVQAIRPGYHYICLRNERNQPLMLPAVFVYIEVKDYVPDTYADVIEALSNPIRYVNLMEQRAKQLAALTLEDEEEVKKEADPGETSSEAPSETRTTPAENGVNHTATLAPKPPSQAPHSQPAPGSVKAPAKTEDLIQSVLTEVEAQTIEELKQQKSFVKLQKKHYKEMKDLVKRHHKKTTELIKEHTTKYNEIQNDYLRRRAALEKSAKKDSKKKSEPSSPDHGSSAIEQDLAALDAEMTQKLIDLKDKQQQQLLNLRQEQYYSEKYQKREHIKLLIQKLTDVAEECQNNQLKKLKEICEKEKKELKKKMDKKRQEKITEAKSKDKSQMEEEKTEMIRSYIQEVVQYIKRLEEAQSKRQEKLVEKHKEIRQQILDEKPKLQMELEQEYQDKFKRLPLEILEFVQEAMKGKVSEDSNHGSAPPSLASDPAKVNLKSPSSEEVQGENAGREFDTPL
Put plainly: other fluorescence titration.

B1: Alexa594-eIF5A (purified) (natural protein)
chain: not shown
modifications: Alexa594 on the N-terminus
By Kd is commonly meant the free concentration of one partner at which half of the binding sites on the other are occupied at equilibrium, for simple one-to-one binding. Higher therefore signals a looser complex. Turning to B1, the dissociation constant (Kd) amounted to 27 ± 5 nM.

The values are drawn from doi:10.1101/521369 (bioRxiv, 2019).
